Measured values: patent CN101605906A (MEDAREX INC, dated 2009)

Target: T1, 人类CD70 (表达于细胞表面) (human, UniProt P32970 1-193)
T1 sequence: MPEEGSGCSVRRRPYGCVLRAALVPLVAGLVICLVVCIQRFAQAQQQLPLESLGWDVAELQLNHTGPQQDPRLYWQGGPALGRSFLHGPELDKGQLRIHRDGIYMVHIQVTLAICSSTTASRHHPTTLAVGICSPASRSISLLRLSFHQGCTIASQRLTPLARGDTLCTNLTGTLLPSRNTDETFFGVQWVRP
Test: cell-based or functional assay

B1: 抗-CD70人类单克隆抗体2H5 (antibody, V domains shown)
VH: QVQLVESGGGVVQPGRSLRLSCAASGFTFSSYIMHWVRQAPGKGLEWVAVISYDGRNKYYADSVKGRFTISRDNSKNTLYLQMNSLRAEDTAVYYCARDTDGYDFDYWGQGTLVTVSS
VL: EIVLTQSPATLSLSPGERATLSCRASQSVSSYLAWYQQKPGQAPRLLIYDASNRATGIPARFSGSGSGTDFTLTISSLEPEDFAVYYCQQRTNWPLTFGGGTKVEIK
B1 was tested, and the “3 H-胸腺嘧啶核苷掺入 (Hum-Zap内化测定, 786-O细胞), EC50” value was 0.9 nM.
